{"source": "paper PMC2820149", "about": "(Journal of the American Chemical Society, 2010)", "key": {"[1]": {"system": "Pa0142 homologue (gi|44264246)"}, "coupled ammonia assay [2]": {"substrate": "Nc1nc2nc[nH]c2c(=O)[nH]1", "assay": "coupled ammonia assay", "type": "biochemical, Pseudomonas aeruginosa", "conditions": "pH 8.0, 30 °C"}, "coupled ammonia assay [3]": {"substrate": "Nc1nccc(O)n1", "assay": "coupled ammonia assay", "type": "biochemical, Pseudomonas aeruginosa", "conditions": "pH 8.0, 30 °C"}, "deamination kinetics [4]": {"substrate": "Nc1nc2nc[nH]c2c(=O)[nH]1", "assay": "deamination kinetics", "type": "biochemical, Pseudomonas aeruginosa"}, "deamination kinetics [5]": {"substrate": "Nc1nc2nc[nH]c2c(=O)[nH]1", "assay": "deamination kinetics", "type": "biochemical, Escherichia coli"}}}
{"molecule": "Nc1nccc(=O)[nH]1", "note": "[compound 3, isocytosine]", "values": [{"measurement": "Km", "setting": "[1]", "result": "1.6 ± 0.2", "unit": "mM"}]}
{"molecule": "Nc1nc2[nH]cnc2c(=O)[nH]1", "note": "[compound 2, guanine]", "values": [{"measurement": "Km", "setting": "[1]", "result": "1 ± 0.1", "unit": "mM"}]}
{"molecule": "Pa0142 (Pseudomonas aeruginosa PAO1) (protein) MSRTWIRNPLAIFTANGLDAAGGLVVEDGRIVELLGAGQQPAQPCASQFDASRHVVLPGLVNTHHHFYQTLTRAWAPVVNQPLFPWLKTLYPVWARLTPEKLELATKVALAELLLSGCTTAADHHYLFPGGLEQAIDVQAGVVEELGMRAMLTRGSMSLGEKDGGLPPQQTVQEAETILADSERLIARYHQRGDGARVQIALAPCSPFSVTPEIMRASAEVAARHDVRLHTHLAETLDEEDFCLQRFGLRTVDYLDSVGWLGPRTWLAHGIHFNAEEIRRLGEAGTGICHCPSSNMRLASGICPTVELEAAGAPIGLGVDGSASNDASNMILEARQALYLQRLRYGAERITPELALGWATRGSARLLGRSDIGELAPGKQADLALFKLDELRFSGSHDPLSALLLCAADRADRVMVGGAWRVVDGAVEGLDLAALIARHRAAASALIAG", "values": [{"measurement": "Km", "setting": "coupled ammonia assay [2]", "result": "2.6 ± 0.6", "unit": "mM"}, {"measurement": "kcat", "setting": "coupled ammonia assay [2]", "result": "3.3 ± 0.6", "unit": "s⁻¹"}, {"measurement": "Km", "setting": "coupled ammonia assay [3]", "result": "1.8 ± 0.1", "unit": "mM"}, {"measurement": "kcat", "setting": "coupled ammonia assay [3]", "result": "3.9 ± 0.1", "unit": "s⁻¹"}]}
{"molecule": "Pa0134 (Pseudomonas aeruginosa PAO1) (protein) MNDAVPAGNFVPPLILHSDHGGSAMSSSAHRGRILHFLGDPAKLGDKAWEYFEDGLLWIEHGHVRALDHATYLLPQLPADLPLEEHPQRLLLPGFVDCHVHYPQLGVIASYGTQLLDWLETHTFPAEQRFADAGYAAAQAELFLDELLRHGTTTALVFGTVHAVSAEAFFQAAQKRRLRMIAGKVLMDRNAPPALCDTAASGYAESRALIERWHGNGRLQYAVTPRFAPTSSPEQLAAAARLLDEYPGVYLHTHLSENLKEVAWVGELFPQAQDYLDVYHRAGLVGERSVFAHGIHLSERECRCLAHKNAALAHCPSSNLFIGSGLFDLGRAQQYGIRVGIGSDVGGGTSLSLLANLADAYKIQQLRGTSLDPFQALYLATLGGARALDLDGLVGNFLPGREADFVALDLAATPMIAQRMEHARGLADTLFVLNTLGDDRAVAETWVMGERRHVKG", "values": [{"measurement": "Km", "setting": "deamination kinetics [4]", "result": "0.50 ± 0.09", "unit": "mM"}, {"measurement": "kcat", "setting": "deamination kinetics [4]", "result": "21 ± 2", "unit": "s⁻¹"}]}
{"molecule": "b2883 (Escherichia coli K-12) (protein) MMSGEHTLKAVRGSFIDVTRTIDNPEEIASALRFIEDGLLLIKQGKVEWFGEWENGKHQIPDTIRVRDYRGKLIVPGFVDTHIHYPQSEMVGAYGEQLLEWLNKHTFPTERRYEDLEYAREMSAFFIKQLLRNGTTTALVFGTVHPQSVDALFEAASHINMRMIAGKVMMDRNAPDYLLDTAESSYHQSKELIERWHKNGRLLYAITPRFAPTSSPEQMAMAQRLKEEYPDTWVHTHLCENKDEIAWVKSLYPDHDGYLDVYHQYGLTGKNCVFAHCVHLEEKEWDRLSETKSSIAFCPTSNLYLGSGLFNLKKAWQKKVKVGMGTDIGAGTTFNMLQTLNEAYKVLQLQGYRLSAYEAFYLATLGGAKSLGLDDLIGNFLPGKEADFVVMEPTATPLQQLRYDNSVSLVDKLFVMMTLGDDRSIYRTYVDGRLVYERN", "values": [{"measurement": "Km", "setting": "deamination kinetics [5]", "result": "0.15 ± 0.01", "unit": "mM"}, {"measurement": "kcat", "setting": "deamination kinetics [5]", "result": "12.5 ± 0.2", "unit": "s⁻¹"}]}
